Assay results taken from patent US20170130210.

How the values were obtained:
[1] = biological target: Pfk-I (DAS+4), N-terminal 6x-His-tagged Pfk-I with the modified DAS+4 tag at the C terminus (UniProt P0A796)
[2] = biological target: Pfk-I (LAA), N-terminal 6x-His-tagged Pfk-I with the native ssrA tag (LAA) appended to the C terminus (UniProt P0A796)
[3] = biological target: Pfk-I (untagged), N-terminal 6x-His-tagged phosphofructokinase-I without C-terminal degradation tag (UniProt P0A796)
Chain of Pfk-I (untagged), N-terminal 6x-His-tagged phosphofructokinase-I without C-terminal degradation tag (P0A796 whole entry): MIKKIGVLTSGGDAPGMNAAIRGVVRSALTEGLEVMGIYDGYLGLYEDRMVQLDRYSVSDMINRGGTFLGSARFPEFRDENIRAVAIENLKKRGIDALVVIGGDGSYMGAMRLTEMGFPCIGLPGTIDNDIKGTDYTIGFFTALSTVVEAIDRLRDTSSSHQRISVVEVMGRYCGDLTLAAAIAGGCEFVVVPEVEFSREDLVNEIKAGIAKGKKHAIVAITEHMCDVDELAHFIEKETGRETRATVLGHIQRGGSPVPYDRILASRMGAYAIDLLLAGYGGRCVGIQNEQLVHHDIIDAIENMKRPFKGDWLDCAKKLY

Chain of Pfk-I (DAS+4), N-terminal 6x-His-tagged Pfk-I with the modified DAS+4 tag at the C terminus (P0A796 other isoform, or with tags, fused parts or gaps): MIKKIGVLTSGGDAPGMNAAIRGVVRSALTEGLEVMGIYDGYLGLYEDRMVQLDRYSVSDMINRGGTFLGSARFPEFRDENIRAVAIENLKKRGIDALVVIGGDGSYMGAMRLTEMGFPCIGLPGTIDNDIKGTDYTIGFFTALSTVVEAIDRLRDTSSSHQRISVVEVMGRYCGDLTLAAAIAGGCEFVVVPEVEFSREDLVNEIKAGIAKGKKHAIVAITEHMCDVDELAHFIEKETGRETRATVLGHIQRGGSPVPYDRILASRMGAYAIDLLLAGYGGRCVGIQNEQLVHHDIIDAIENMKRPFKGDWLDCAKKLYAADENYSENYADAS
Chain of Pfk-I (LAA), N-terminal 6x-His-tagged Pfk-I with the native ssrA tag (LAA) appended to the C terminus (P0A796 other isoform, or with tags, fused parts or gaps): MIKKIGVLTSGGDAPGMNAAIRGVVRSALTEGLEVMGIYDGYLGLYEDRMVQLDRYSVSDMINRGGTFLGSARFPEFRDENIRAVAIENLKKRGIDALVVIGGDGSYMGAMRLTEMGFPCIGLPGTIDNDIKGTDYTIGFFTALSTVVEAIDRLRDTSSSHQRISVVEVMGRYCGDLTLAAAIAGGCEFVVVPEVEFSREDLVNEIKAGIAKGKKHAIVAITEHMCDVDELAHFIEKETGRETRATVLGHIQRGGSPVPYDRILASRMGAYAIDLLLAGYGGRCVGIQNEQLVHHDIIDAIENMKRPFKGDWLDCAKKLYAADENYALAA

## ClpXP protease (0.3 µM ClpX6 and 0.9 µM ClpP14)
[1]
  in vitro degradation by ClpXP with ATP, SDS-PAGE time course, no SspB: no significant degradation was observed over the 60 minute period
[2]
  in vitro degradation by ClpXP with ATP, SDS-PAGE time course: shows almost complete disappearance by 20 minutes
[3]
  in vitro degradation by ClpXP with ATP, SDS-PAGE time course: does not show significant degradation during the 60 minute incubation with ClpXP
